Patent US12338277

Legend:
Assay in all cases: cell-based or functional assay
[1] = target: HIV-1 Env of pseudovirus CAAN5342.A2 (HIV-1)
[2] = target: HIV-1 Env of pseudovirus CNE17 (HIV-1)
[3] = target: HIV-1 Env of pseudovirus Du156.12 (HIV-1)
[4] = target: HIV-1 Env of pseudovirus MS208.A1 (HIV-1)
[5] = target: HIV-1 Env of pseudovirus R1166.c01 (HIV-1)
[6] = target: HIV-1 Env of pseudovirus RHPA4259.7 (HIV-1)
[7] = target: HIV-1 Env of pseudovirus X1254_c3 (HIV-1)
[8] = target: HIV-1 Env of pseudovirus X2088_c9 (HIV-1)
[9] = target: HIV-1 envelope of pseudovirus 0815.v3.c3 (HIV-1)
[10] = target: HIV-1 envelope of pseudovirus 1054_07_TC4_1499 (HIV-1)
[11] = target: HIV-1 envelope of pseudovirus 249M B10 (HIV-1)
[12] = target: HIV-1 envelope of pseudovirus 3365.v2.c2 (HIV-1)
[13] = target: HIV-1 envelope of pseudovirus 6480.v4.c25 (HIV-1)
[14] = target: HIV-1 envelope of pseudovirus BJOX028000.10.3 (HIV-1)
[15] = target: HIV-1 envelope of pseudovirus CNE19 (HIV-1)
[16] = target: HIV-1 envelope of pseudovirus HIV-16845-2.22 (HIV-1)
[17] = target: HIV-1 envelope of pseudovirus PVO.4 (HIV-1)
[18] = target: HIV-1 envelope of pseudovirus Q769.d22 (HIV-1)
[19] = target: HIV-1 envelope of pseudovirus QH0692.42 (HIV-1)
[20] = target: HIV-1 envelope of pseudovirus SC422661.8 (HIV-1)
[21] = target: HIV-1 envelope of pseudovirus X2088_c9 (HIV-1)
[22] = target: HIV-1 envelope of pseudovirus X2131_C1_85 (HIV-1)
[23] = target: HIV-1 envelope spike of pseudovirus YU-2 (HIV-1) (UniProt P35961)
[24] = target: HIV-1 Env of pseudovirus BJOX009000.02.4 (HIV-1)
[25] = target: HIV-1 envelope glycoprotein of pseudovirus 0260.v5.c36 (clade A) (HIV-1)
[26] = target: HIV-1 envelope glycoprotein of pseudovirus 1054_07_TC4_1499 (clade B (T/F)) (HIV-1)
[27] = target: HIV-1 envelope glycoprotein of pseudovirus 211-9 (clade CRF02_AG) (HIV-1)
[28] = target: HIV-1 envelope glycoprotein of pseudovirus 235-47 (clade CRF02_AG) (HIV-1)
[29] = target: HIV-1 envelope glycoprotein of pseudovirus 263-8 (clade CRF02_AG) (HIV-1)
[30] = target: HIV-1 envelope glycoprotein of pseudovirus 3365.v2.c2 (clade A) (HIV-1)
[31] = target: HIV-1 envelope glycoprotein of pseudovirus 3817.v2.c59 (clade CD) (HIV-1)
[32] = target: HIV-1 envelope glycoprotein of pseudovirus 6244_13_B5_4576 (clade B (T/F)) (HIV-1)
[33] = target: HIV-1 envelope glycoprotein of pseudovirus A07412m1.vrv12 (clade D) (HIV-1)
[34] = target: HIV-1 envelope glycoprotein of pseudovirus BJOX009000.02.4 (clade CRF01_AE) (HIV-1)
[35] = target: HIV-1 envelope glycoprotein of pseudovirus CAP45.2.00.G3 (clade C) (HIV-1)
[36] = target: HIV-1 envelope glycoprotein of pseudovirus CNE30 (clade BC) (HIV-1)
[37] = target: HIV-1 envelope glycoprotein of pseudovirus CNE52 (clade BC) (HIV-1)
[38] = target: HIV-1 envelope glycoprotein of pseudovirus CNE58 (clade BC) (HIV-1)
[39] = target: HIV-1 envelope glycoprotein of pseudovirus HIV-16055-2.3 (clade C) (HIV-1)
[40] = target: HIV-1 envelope glycoprotein of pseudovirus HIV-16845-2.22 (clade C) (HIV-1)
[41] = target: HIV-1 envelope glycoprotein of pseudovirus QH0692.42 (clade B) (HIV-1)
[42] = target: HIV-1 envelope glycoprotein of pseudovirus RHPA4259.7 (clade B) (HIV-1)
[43] = target: HIV-1 envelope glycoprotein of pseudovirus TRJO4551.58 (clade B) (HIV-1)
[44] = target: HIV-1 envelope glycoprotein of pseudovirus WITO4160.33 (clade B) (HIV-1)
[45] = target: HIV-1 envelope glycoprotein of pseudovirus ZM135M.PL10a (clade C) (HIV-1)
[46] = target: HIV-1 envelope glycoprotein of pseudovirus ZM214M.PL15 (clade C) (HIV-1)
[47] = target: HIV-1 envelope glycoprotein of pseudovirus ZM233M.PB6 (clade C) (HIV-1)

Chain of 10-996 (antibody) (VH): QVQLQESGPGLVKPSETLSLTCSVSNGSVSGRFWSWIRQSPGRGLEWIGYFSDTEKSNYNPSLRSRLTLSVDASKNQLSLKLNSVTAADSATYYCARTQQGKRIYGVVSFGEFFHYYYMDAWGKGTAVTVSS
Chain of 10-996 (antibody) (VL): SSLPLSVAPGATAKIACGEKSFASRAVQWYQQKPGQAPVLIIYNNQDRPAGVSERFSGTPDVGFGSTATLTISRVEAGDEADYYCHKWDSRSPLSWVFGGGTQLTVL
Chain of HIV-1 envelope spike of pseudovirus YU-2 (HIV-1) (P35961 32-843): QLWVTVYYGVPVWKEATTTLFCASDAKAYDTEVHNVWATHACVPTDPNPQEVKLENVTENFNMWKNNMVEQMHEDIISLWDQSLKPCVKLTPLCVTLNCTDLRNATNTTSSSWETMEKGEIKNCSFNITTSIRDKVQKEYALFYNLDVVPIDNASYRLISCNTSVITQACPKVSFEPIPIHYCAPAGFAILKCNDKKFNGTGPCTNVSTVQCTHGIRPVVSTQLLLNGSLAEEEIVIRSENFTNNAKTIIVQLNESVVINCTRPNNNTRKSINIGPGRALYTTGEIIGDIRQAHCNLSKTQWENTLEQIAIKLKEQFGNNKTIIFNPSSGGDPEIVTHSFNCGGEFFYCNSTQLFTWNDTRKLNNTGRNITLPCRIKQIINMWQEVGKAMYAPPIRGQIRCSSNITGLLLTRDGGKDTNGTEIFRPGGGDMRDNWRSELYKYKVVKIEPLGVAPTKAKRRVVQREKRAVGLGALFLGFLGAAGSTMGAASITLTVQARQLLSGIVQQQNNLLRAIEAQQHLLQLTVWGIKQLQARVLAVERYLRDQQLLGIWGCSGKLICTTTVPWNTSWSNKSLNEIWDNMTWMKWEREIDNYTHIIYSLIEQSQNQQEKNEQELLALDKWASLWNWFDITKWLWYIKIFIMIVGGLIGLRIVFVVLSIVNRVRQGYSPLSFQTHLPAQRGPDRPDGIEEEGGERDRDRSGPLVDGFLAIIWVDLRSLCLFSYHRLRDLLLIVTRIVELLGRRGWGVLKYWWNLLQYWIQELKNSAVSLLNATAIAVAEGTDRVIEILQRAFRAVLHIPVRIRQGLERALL
Chain of 10-1074 (antibody) (VH): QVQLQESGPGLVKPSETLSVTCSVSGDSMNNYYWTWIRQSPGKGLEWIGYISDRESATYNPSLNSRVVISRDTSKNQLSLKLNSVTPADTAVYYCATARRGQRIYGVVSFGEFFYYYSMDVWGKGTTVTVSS
Chain of 10-1074 (antibody) (V domain): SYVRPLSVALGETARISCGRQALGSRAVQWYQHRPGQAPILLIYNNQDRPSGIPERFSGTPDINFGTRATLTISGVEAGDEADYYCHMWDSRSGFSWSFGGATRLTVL

In the case of 10-996 (antibody), the IC80 (TZM-bl neutralization) [1] is reported as 0.079 µg/mL, the IC80 (TZM-bl neutralization) [2] is reported as 24.7 µg/mL and the IC80 (TZM-bl neutralization) [3] is reported as 0.101 µg/mL. The IC80 (TZM-bl neutralization) [4] was greater than 50 µg/mL, the IC80 (TZM-bl neutralization) [5] was greater than 50 µg/mL and the IC80 (TZM-bl neutralization) [6] was 0.163 µg/mL. The IC80 (TZM-bl neutralization) [7] was 0.42 µg/mL, the IC80 (TZM-bl neutralization) [8] was 0.014 µg/mL and the IC50 (TZM-bl neutralization) [9] was 0.061 µg/mL. For the same substance, the IC50 (TZM-bl neutralization) [10] was 0.26 µg/mL, the IC50 (TZM-bl neutralization) [11] was greater than 50 µg/mL and the IC50 (TZM-bl neutralization) [12] was 0.286 µg/mL. It also gave an IC50 (TZM-bl neutralization) [13] of 0.01 µg/mL, an IC50 (TZM-bl neutralization) [14] greater than 50 µg/mL and an IC50 (TZM-bl neutralization) [15] of 3.45 µg/mL. The IC50 (TZM-bl neutralization) [16] was 1.32 µg/mL, the IC50 (TZM-bl neutralization) [17] was 0.186 µg/mL and the IC50 (TZM-bl neutralization) [18] was greater than 50 µg/mL. The IC50 (TZM-bl neutralization) [19] was 0.396 µg/mL, the IC50 (TZM-bl neutralization) [20] was 0.173 µg/mL and the IC50 (TZM-bl neutralization) [21] was 0.002 µg/mL. It also gave an IC50 (TZM-bl neutralization) [22] of 0.019 µg/mL, an IC50 (TZM-bl neutralization assay) [23] of 0.256 µg/mL and an IC80 (TZM-bl neutralization assay) [23] of 0.891 µg/mL.

Substance 10-1074 (antibody) has an IC80 (TZM-bl neutralization) [24] greater than 50 µg/mL, an IC80 (TZM-bl neutralization) [1] of 0.036 µg/mL and an IC80 (TZM-bl neutralization) [2] of 13.3 µg/mL. The IC80 (TZM-bl neutralization) [3] was 0.076 µg/mL, the IC80 (TZM-bl neutralization) [4] was greater than 50 µg/mL and the IC80 (TZM-bl neutralization) [5] was greater than 50 µg/mL. It also gave an IC80 (TZM-bl neutralization) [6] of 0.118 µg/mL, an IC80 (TZM-bl neutralization) [7] of 0.297 µg/mL and an IC80 (TZM-bl neutralization) [8] of 0.014 µg/mL. The IC50 in the TZM-bl neutralization assay [25] was 0.16 µg/mL, the IC50 in the TZM-bl neutralization assay [26] was 0.563 µg/mL and the IC50 in the TZM-bl neutralization assay [27] was 0.425 µg/mL. It also gave an IC50 in the TZM-bl neutralization assay [28] of 0.163 µg/mL, an IC50 in the TZM-bl neutralization assay [29] of 6.53 µg/mL and an IC50 in the TZM-bl neutralization assay [30] of 0.45 µg/mL. It also gave an IC50 in the TZM-bl neutralization assay [31] of 14.9 µg/mL, an IC50 in the TZM-bl neutralization assay [32] of 0.922 µg/mL and an IC50 in the TZM-bl neutralization assay [33] of 0.048 µg/mL. For the same substance, the IC50 in the TZM-bl neutralization assay [34] was greater than 50 µg/mL, the IC50 in the TZM-bl neutralization assay [35] was greater than 50 µg/mL and the IC50 in the TZM-bl neutralization assay [36] was 1.2 µg/mL. It also gave an IC50 in the TZM-bl neutralization assay [37] of 13.1 µg/mL, an IC50 in the TZM-bl neutralization assay [38] of 0.968 µg/mL and an IC50 in the TZM-bl neutralization assay [39] greater than 50 µg/mL. For the same substance, the IC50 in the TZM-bl neutralization assay [40] was 5.83 µg/mL, the IC50 in the TZM-bl neutralization assay [41] was 0.929 µg/mL and the IC50 in the TZM-bl neutralization assay [42] was 0.118 µg/mL. It also gave an IC50 in the TZM-bl neutralization assay [43] of 0.634 µg/mL, an IC50 in the TZM-bl neutralization assay [44] of 2.11 µg/mL and an IC50 in the TZM-bl neutralization assay [45] of 0.367 µg/mL. The IC50 in the TZM-bl neutralization assay [46] was 2.37 µg/mL, the IC50 in the TZM-bl neutralization assay [47] was 0.349 µg/mL and the IC50 (TZM-bl neutralization) [9] was 0.03 µg/mL. For the same substance, the IC50 (TZM-bl neutralization) [10] was 0.129 µg/mL, the IC50 (TZM-bl neutralization) [11] was greater than 50 µg/mL and the IC50 (TZM-bl neutralization) [12] was 0.131 µg/mL. The IC50 (TZM-bl neutralization) [13] was 0.009 µg/mL, the IC50 (TZM-bl neutralization) [14] was greater than 50 µg/mL and the IC50 (TZM-bl neutralization) [15] was 50 µg/mL. It also gave an IC50 (TZM-bl neutralization) [16] of 1.17 µg/mL, an IC50 (TZM-bl neutralization) [17] of 0.074 µg/mL and an IC50 (TZM-bl neutralization) [18] greater than 50 µg/mL. The IC50 (TZM-bl neutralization) [19] was 0.191 µg/mL, the IC50 (TZM-bl neutralization) [20] was 0.091 µg/mL and the IC50 (TZM-bl neutralization) [21] was 0.003 µg/mL. The IC50 (TZM-bl neutralization) [22] was 0.016 µg/mL, the IC50 (TZM-bl neutralization assay) [23] was 0.143 µg/mL and the IC80 (TZM-bl neutralization assay) [23] was 0.398 µg/mL.

With PGT121 (antibody) the IC80 (TZM-bl neutralization) [24] was 37.3 µg/mL, the IC80 (TZM-bl neutralization) [1] was 0.051 µg/mL and the IC80 (TZM-bl neutralization) [2] was greater than 50 µg/mL. For the same substance, the IC80 (TZM-bl neutralization) [3] was 0.033 µg/mL, the IC80 (TZM-bl neutralization) [4] was greater than 50 µg/mL and the IC80 (TZM-bl neutralization) [5] was greater than 50 µg/mL. For the same substance, the IC80 (TZM-bl neutralization) [6] was 0.054 µg/mL, the IC80 (TZM-bl neutralization) [7] was 0.199 µg/mL and the IC50 in the TZM-bl neutralization assay [25] was 0.152 µg/mL. For the same substance, the IC50 in the TZM-bl neutralization assay [26] was 0.696 µg/mL, the IC50 in the TZM-bl neutralization assay [27] was 8.84 µg/mL and the IC50 in the TZM-bl neutralization assay [28] was 1.68 µg/mL. The IC50 in the TZM-bl neutralization assay [29] was 24.6 µg/mL, the IC50 in the TZM-bl neutralization assay [30] was 7.35 µg/mL and the IC50 in the TZM-bl neutralization assay [31] was greater than 50 µg/mL. For the same substance, the IC50 in the TZM-bl neutralization assay [32] was 1.88 µg/mL, the IC50 in the TZM-bl neutralization assay [33] was 0.406 µg/mL and the IC50 in the TZM-bl neutralization assay [34] was 37.3 µg/mL. For the same substance, the IC50 in the TZM-bl neutralization assay [35] was 6.54 µg/mL, the IC50 in the TZM-bl neutralization assay [36] was 0.559 µg/mL and the IC50 in the TZM-bl neutralization assay [37] was 32.9 µg/mL. It also gave an IC50 in the TZM-bl neutralization assay [38] greater than 50 µg/mL, an IC50 in the TZM-bl neutralization assay [39] of 4.29 µg/mL and an IC50 in the TZM-bl neutralization assay [40] greater than 50 µg/mL. For the same substance, the IC50 in the TZM-bl neutralization assay [41] was 8.54 µg/mL, the IC50 in the TZM-bl neutralization assay [42] was 0.054 µg/mL and the IC50 in the TZM-bl neutralization assay [43] was 35.3 µg/mL. The IC50 in the TZM-bl neutralization assay [44] was 6.01 µg/mL, the IC50 in the TZM-bl neutralization assay [45] was 5.88 µg/mL and the IC50 in the TZM-bl neutralization assay [46] was 3.15 µg/mL. It also gave an IC50 in the TZM-bl neutralization assay [47] of 8.98 µg/mL, an IC50 (TZM-bl neutralization) [10] of 0.115 µg/mL and an IC50 (TZM-bl neutralization) [11] greater than 50 µg/mL. It also gave an IC50 (TZM-bl neutralization) [12] of 0.921 µg/mL, an IC50 (TZM-bl neutralization) [13] of 0.017 µg/mL and an IC50 (TZM-bl neutralization) [14] greater than 50 µg/mL. The IC50 (TZM-bl neutralization) [16] was 12.7 µg/mL, the IC50 (TZM-bl neutralization) [17] was 0.131 µg/mL and the IC50 (TZM-bl neutralization) [18] was greater than 50 µg/mL. It also gave an IC50 (TZM-bl neutralization) [19] of 1.04 µg/mL, an IC50 (TZM-bl neutralization) [20] of 0.101 µg/mL and an IC50 (TZM-bl neutralization assay) [23] of 0.098 µg/mL. It also gave an IC80 (TZM-bl neutralization assay) [23] of 0.356 µg/mL.
